# Tests used:
# [1] = target: A3G-H248A/H250A-Myc-His (human, UniProt Q9HC16 1-384, H248A;H250A); test: EMSA
# [2] = target: APOBEC3G (A3G-Myc-His) (human, UniProt Q9HC16 1-384); test: EMSA
# APOBEC3G (A3G-Myc-His), sequence (Q9HC16 whole entry): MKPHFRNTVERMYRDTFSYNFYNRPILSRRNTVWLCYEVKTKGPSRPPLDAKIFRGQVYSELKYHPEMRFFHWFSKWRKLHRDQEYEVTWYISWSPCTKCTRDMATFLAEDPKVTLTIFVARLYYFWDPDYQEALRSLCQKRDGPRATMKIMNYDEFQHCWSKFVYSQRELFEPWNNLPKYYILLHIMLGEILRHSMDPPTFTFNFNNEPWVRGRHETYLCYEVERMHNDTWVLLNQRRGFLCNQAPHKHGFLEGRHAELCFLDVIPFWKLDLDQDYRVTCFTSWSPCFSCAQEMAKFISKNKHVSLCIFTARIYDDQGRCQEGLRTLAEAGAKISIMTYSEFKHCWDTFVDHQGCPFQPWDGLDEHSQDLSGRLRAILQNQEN
# A3G-H248A/H250A-Myc-His, sequence (Q9HC16 whole entry H248A/H250A): as the sequence (Q9HC16 whole entry) above, with H248A, H250A counted along it
binder,measurement,setting,value
ATTATTATTATTCCAATGGATTTATTTATTTATTTATTTATTT (ssDNA) [43-nt ssDNA],binding result,[1],binds
same,binding result,[2],binds

# — PMC3030345
